We go through 13 molecules from US20260167693A1 (ANGELES THERAPEUTICS, published 2026).

Substitutions are numbered along the chain they refer to. Numbers in names are those of the source.

T1: CD19-ECD-GGSG-NLuc-AcV5 (human)
T1 construct: also called CD19-GGSG-NLuc-AcV5; Flag-CD19-GGSG-NLuc-AcV5
T1 chain: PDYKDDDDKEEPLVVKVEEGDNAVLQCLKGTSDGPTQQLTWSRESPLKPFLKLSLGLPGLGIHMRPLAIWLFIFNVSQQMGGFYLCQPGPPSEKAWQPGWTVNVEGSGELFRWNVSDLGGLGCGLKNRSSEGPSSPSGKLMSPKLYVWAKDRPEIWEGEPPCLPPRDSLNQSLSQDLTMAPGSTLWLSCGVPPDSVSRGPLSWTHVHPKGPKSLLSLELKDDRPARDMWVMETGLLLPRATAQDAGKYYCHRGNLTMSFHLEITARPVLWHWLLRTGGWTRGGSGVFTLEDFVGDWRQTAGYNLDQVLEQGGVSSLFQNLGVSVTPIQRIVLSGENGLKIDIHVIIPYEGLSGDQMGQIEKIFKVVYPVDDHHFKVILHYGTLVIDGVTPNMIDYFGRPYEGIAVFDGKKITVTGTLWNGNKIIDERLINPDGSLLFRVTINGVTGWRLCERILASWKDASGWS

B1: CD8SP-FMC63-vL-[hTCRb-R18A22]-F-P2A-SP-FMC63-vH-Myc4-[hTCRa-SD]-F-F2A-PAC (other)
TCR beta: DIQMTQTTSSLSASLGDRVTISCRASQDISKYLNWYQQKPDGTVKLLIYHTSRLHSGVPSRFSGSGSGTDYSLTISNLEQEDIATYFCQQGNTLPYTFGGGTKLEITEDLKNVFPPEVAVFEPSRAEIAHTQKATLVCLATGFYPDHVELSWWVNGKEVHSGVSTDPQPLKEQPALNDSRYCLSSRLRVSATFWQNPRNHFRCQVQFYGLSENDEWTQDRAKPVTQIVSAEAWGRADCGFTSESYQQGVLSATILYEILLGKATLYAVLVSALVLMAMVKRKDSRG
TCR alpha: EVKLQESGPGLVAPSQSLSVTCTVSGVSLPDYGVSWIRQPPRKGLEWLGVIWGSETTYYNSALKSRLTIIKDNSKSQVFLKMNSLQTDDTAIYYCAKHYYYGGSYAMDYWGQGTSVTVSSEQKLISEEDLGSGIQNPDPAVYQLRDSKSSDKSVCLFTDFDSQTNVSQSKDSDVYITDKTVLDMRSMDFKSNSAVAWSNKSDFACANAFNNSIIPEDTFFPSSDSSCDVKLVEKSFETDTNLNFQNLSVIGFRILLLKVAGFNLLMTLRLWSS
notes: Polyprotein PRT 12439; also called 112116-R08
B2: CD8SP-FMC63-vL-[hTCRb-RC]-F-P2A-SP-FMC63-vH-[hTCRa-CSDVP]-F-F2A-PAC (other)
TCR beta: B1 TCR beta with A129S, S164C
TCR alpha: EVKLQESGPGLVAPSQSLSVTCTVSGVSLPDYGVSWIRQPPRKGLEWLGVIWGSETTYYNSALKSRLTIIKDNSKSQVFLKMNSLQTDDTAIYYCAKHYYYGGSYAMDYWGQGTSVTVSSIQNPDPAVYQLRDSKSSDKSVCLFTDFDSQTNVSQSKDSDVYITDKCVLDMRSMDFKSNSAVAWSNKSDFACANAFNNSIIPEDTFFPSSDVPCDVKLVEKSFETDTNLNFQNLSVIGFRILLLKVAGFNLLMTLRLWSS
notes: Polyprotein PRT 12445; also called 121516-U07
B3: CD8SP-FMC63-vL-Myc2-[hTCRb-R18A22]-F-P2A-SP-FMC63-vH-Myc4-[hTCRa-SD]-F-F2A-PAC (other)
TCR beta: DIQMTQTTSSLSASLGDRVTISCRASQDISKYLNWYQQKPDGTVKLLIYHTSRLHSGVPSRFSGSGSGTDYSLTISNLEQEDIATYFCQQGNTLPYTFGGGTKLEITEQKLISEEDLGSGEDLKNVFPPEVAVFEPSRAEIAHTQKATLVCLATGFYPDHVELSWWVNGKEVHSGVSTDPQPLKEQPALNDSRYCLSSRLRVSATFWQNPRNHFRCQVQFYGLSENDEWTQDRAKPVTQIVSAEAWGRADCGFTSESYQQGVLSATILYEILLGKATLYAVLVSALVLMAMVKRKDSRG
TCR alpha: B1 TCR alpha
notes: Polyprotein PRT 12440; also called 112116-S08
B4: CD8SP-FMC63-vL-[hTCRb-KACIAH]-F-P2A-SP-FMC63-vH-[hTCRa-CSDVP]-F-F2A-PAC (other)
TCR beta: B1 TCR beta with R125K, S164C, F240I, E243A, Q246H
TCR alpha: B2 TCR alpha
notes: Polyprotein PRT 12468; also called 022217-E01
B5: CD8SP-FMC63-vL-[hTCRb-R18]-F-P2A-SP-FMC63-vH-Myc4-[hTCRa-SD]-F-F2A-PAC (other)
TCR beta: B1 TCR beta with A129S
TCR alpha: B1 TCR alpha
notes: Polyprotein PRT 12442; also called 112116-U08
B6: CD8SP-FMC63-vL-PG4SP-v2-[hTCRb-KACIAH]-F-P2A-SP-FMC63-vH-PG4SP-[hTCRa-CSDVP]-F-F2A-PAC (other)
TCR beta: DIQMTQTTSSLSASLGDRVTISCRASQDISKYLNWYQQKPDGTVKLLIYHTSRLHSGVPSRFSGSGSGTDYSLTISNLEQEDIATYFCQQGNTLPYTFGGGTKLEITPGGGGSPEDLKNVFPPEVAVFEPSKAEIAHTQKATLVCLATGFYPDHVELSWWVNGKEVHSGVCTDPQPLKEQPALNDSRYCLSSRLRVSATFWQNPRNHFRCQVQFYGLSENDEWTQDRAKPVTQIVSAEAWGRADCGITSASYHQGVLSATILYEILLGKATLYAVLVSALVLMAMVKRKDSRG
TCR alpha: EVKLQESGPGLVAPSQSLSVTCTVSGVSLPDYGVSWIRQPPRKGLEWLGVIWGSETTYYNSALKSRLTIIKDNSKSQVFLKMNSLQTDDTAIYYCAKHYYYGGSYAMDYWGQGTSVTVSSPGGGGSPIQNPDPAVYQLRDSKSSDKSVCLFTDFDSQTNVSQSKDSDVYITDKCVLDMRSMDFKSNSAVAWSNKSDFACANAFNNSIIPEDTFFPSSDVPCDVKLVEKSFETDTNLNFQNLSVIGFRILLLKVAGFNLLMTLRLWSS
notes: Polyprotein PRT 12433; also called 040617-A09
B7: CD8SP-FMC63-vL-E-Coil-[hTCRb-KACIAH]-F-P2A-SP-FMC63-vH-K-coil-[hTCRa-CSDVP]-F-F2A-PAC (other)
TCR beta: B6 TCR beta with P108E, G109V, G110A, G111A, G112L, S113E, P114R
TCR alpha: B6 TCR alpha with P121R, G122V, G123A, G124A, G125L, S126K, P127E
notes: Polyprotein PRT 12434; also called 040617-B09
B8: CD8SP-FMC63-vL-[hTCRa-CSDVP]-F-F2A-SP-FMC63-vH-[hTCRb-KACIAH]-F-P2A-PAC (other)
TCR alpha: DIQMTQTTSSLSASLGDRVTISCRASQDISKYLNWYQQKPDGTVKLLIYHTSRLHSGVPSRFSGSGSGTDYSLTISNLEQEDIATYFCQQGNTLPYTFGGGTKLEITIQNPDPAVYQLRDSKSSDKSVCLFTDFDSQTNVSQSKDSDVYITDKCVLDMRSMDFKSNSAVAWSNKSDFACANAFNNSIIPEDTFFPSSDVPCDVKLVEKSFETDTNLNFQNLSVIGFRILLLKVAGFNLLMTLRLWSS
TCR beta: EVKLQESGPGLVAPSQSLSVTCTVSGVSLPDYGVSWIRQPPRKGLEWLGVIWGSETTYYNSALKSRLTIIKDNSKSQVFLKMNSLQTDDTAIYYCAKHYYYGGSYAMDYWGQGTSVTVSSEDLKNVFPPEVAVFEPSKAEIAHTQKATLVCLATGFYPDHVELSWWVNGKEVHSGVCTDPQPLKEQPALNDSRYCLSSRLRVSATFWQNPRNHFRCQVQFYGLSENDEWTQDRAKPVTQIVSAEAWGRADCGITSASYHQGVLSATILYEILLGKATLYAVLVSALVLMAMVKRKDSRG
notes: Polyprotein PRT 12469; also called 022217-F01
B9: CD8SP-FMC63-vL-V5-[hTCRb-KACIAH]-F-P2A-SP-FMC63-vH-Myc-[hTCRa-CSDVP]-F-F2A-PAC (010616-C01)[SEQ ID NO:1200] (other)
TCR beta: DIQMTQTTSSLSASLGDRVTISCRASQDISKYLNWYQQKPDGTVKLLIYHTSRLHSGVPSRFSGSGSGTDYSLTISNLEQEDIATYFCQQGNTLPYTFGGGTKLEITGKPIPNPLLGLDSTGSGEDLKNVFPPEVAVFEPSKAEIAHTQKATLVCLATGFYPDHVELSWWVNGKEVHSGVCTDPQPLKEQPALNDSRYCLSSRLRVSATFWQNPRNHFRCQVQFYGLSENDEWTQDRAKPVTQIVSAEAWGRADCGITSASYHQGVLSATILYEILLGKATLYAVLVSALVLMAMVKRKDSRG
TCR alpha: EVKLQESGPGLVAPSQSLSVTCTVSGVSLPDYGVSWIRQPPRKGLEWLGVIWGSETTYYNSALKSRLTIIKDNSKSQVFLKMNSLQTDDTAIYYCAKHYYYGGSYAMDYWGQGTSVTVSSEQKLISEEDGSGIQNPDPAVYQLRDSKSSDKSVCLFTDFDSQTNVSQSKDSDVYITDKCVLDMRSMDFKSNSAVAWSNKSDFACANAFNNSIIPEDTFFPSSDVPCDVKLVEKSFETDTNLNFQNLSVIGFRILLLKVAGFNLLMTLRLWSS
notes: Polyprotein PRT 3435; also called 102615-C08
B10: CD8SP-FMC63-vL-V5-[hTCRb-KACIAH]-F-P2A-SP-FMC63-vH-[GSG-hTCRa-T48C-opt]-F-F2A-PAC (other)
TCR beta: B9 TCR beta
TCR alpha: EVKLQESGPGLVAPSQSLSVTCTVSGVSLPDYGVSWIRQPPRKGLEWLGVIWGSETTYYNSALKSRLTIIKDNSKSQVFLKMNSLQTDDTAIYYCAKHYYYGGSYAMDYWGQGTSVTVSSGSGIQNPDPAVYQLRDSKSSDKSVCLFTDFDSQTNVSQSKDSDVYITDKCVLDMRSMDFKSNSAVAWSNKSDFACANAFNNSIIPEDTFFPSPESSCDVKLVEKSFETDTNLNFQNLSVIGFRILLLKVAGFNLLMTLRLWSS
notes: Polyprotein PRT 12436; also called 110916-M04
B11: CD8SP-FMC63-vL-V5-[hTCRb-KACIAH]-F-P2A-SP-FMC63-vH-Myc4-[hTCRα-SD]-F-F2A-PAC (other)
TCR beta: B9 TCR beta
TCR alpha: B1 TCR alpha
notes: Polyprotein PRT 12444; also called 120916-R01
B12: CD8SP-FMC63-vL-GSG-hTCRb-RAC-F-P2A-SP-FMC63-vH-Myc-[hTCRa-CSDVP]-F-F2A-PAC (other)
TCR beta: DIQMTQTTSSLSASLGDRVTISCRASQDISKYLNWYQQKPDGTVKLLIYHTSRLHSGVPSRFSGSGSGTDYSLTISNLEQEDIATYFCQQGNTLPYTFGGGTKLEITGSGEDLKNVFPPEVAVFEPSRAEIAHTQKATLVCLATGFYPDHVELSWWVNGKEVHSGVCTDPQPLKEQPALNDSRYCLSSRLRVSATFWQNPRNHFRCQVQFYGLSENDEWTQDRAKPVTQIVSAEAWGRADCGFTSESYQQGVLSATILYEILLGKATLYAVLVSALVLMAMVKRKDSRG
TCR alpha: B9 TCR alpha
notes: Polyprotein PRT 12447; also called 121516-W05
B13: CD8SP-FMC63-vL-[hTCRb-S57C-opt]-F-P2A-SP-FMC63-vH-Myc-[hTCRa-CSDVP]-F-F2A-PAC (other)
TCR beta: B1 TCR beta with R125E, A129S, S164C
TCR alpha: B9 TCR alpha
notes: Polyprotein PRT 12438; also called 110916-P02

The test has as its target T1, CD19-ECD-GGSG-NLuc-AcV5. In words: NLuc binding assay, SIR on Jurkat-NFAT-GFP cells.
In the case of B1, the “CD19-GGSG-NLuc (RLU)” value stood at 7570 RLU. For the molecule B2, the “CD19-GGSG-NLuc (RLU)” value worked out at 12600 RLU. The value for B3 was 4480 RLU. In the case of B4 it was 9760 RLU; in that of B5, 3910 RLU. Consider B6, for which the “CD19-GGSG-NLuc (RLU)” value amounted to 53700 RLU. B7: the “CD19-GGSG-NLuc (RLU)” value is 35700 RLU. The value for B8 was 21300 RLU; that for B9 was 6840 RLU; that for B10 was 20500 RLU. On to B11, for which the “CD19-GGSG-NLuc (RLU)” value worked out at 2660 RLU. The value for B12 was 17200 RLU.

Regarding B13, the “CD19-GGSG-NLuc (RLU)” value came out at 2180 RLU.
